Measurements reported in patent US20070020688A1, “Measurement method using biosensor” (FUJI PHOTO FILM CO., LTD., priority 2005, published 2007).

Tests used:
[1] = biological target: T1, trypsin (Bos taurus, UniProt P00760); assay: Compound binding amount on trypsin-immobilized hydrogel-coated chip by surface plasmon resonance; conditions: for Compound binding amount (RU): compound 0.01 mM, 3 minutes
T1 construct: purchased Worthington
T1 sequence (P00760 24-246): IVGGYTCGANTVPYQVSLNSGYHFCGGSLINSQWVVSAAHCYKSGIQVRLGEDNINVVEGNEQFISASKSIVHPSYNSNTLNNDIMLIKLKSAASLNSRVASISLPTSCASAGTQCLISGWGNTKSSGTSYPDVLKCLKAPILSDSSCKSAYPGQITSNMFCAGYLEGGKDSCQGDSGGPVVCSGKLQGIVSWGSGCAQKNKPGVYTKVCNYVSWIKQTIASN
Protocol: Trypsin (manufactured by Worthington) was immobilized on the hydrogel-coated measurement chip produced in (2) above. Measurement was carried out using the surface plasmon resonance measurement device described in (1) above.
A mixed solution of 1-ethyl-2,3-dimethylaminopropylcarbodiimide (400 mM) and N-hydroxysuccinimide (100 mM) was added to a hydrogel-coated chip, followed by leaving at rest for 20 minutes. Thereafter, the resultant product was washed with a 10 mM phosphate buffer. Subsequently, the aforementioned trypsin solution was added thereto, followed by leaving at rest for the period of time shown in Table 1. Thereafter, the resultant product was subjected to a primary washing with a 10 mM phosphate buffer, and then subjected to a secondary washing with the washing solution shown in Table 1. Thereafter, the resultant product was further washed with a 10 mM phosphate buffer. It is to be noted that it has been known that if such a secondary washing is carried out with 10 mM NaOH, non-specifically adsorbed proteins are washed out, and a baseline drift thereby becomes stable during interaction measurement.
By the aforementioned operations, trypsin was immobilized on the surface of the measurement chip via a covalent bond. The amount by which resonance signals (RU value) obtained before the addition of trypsin and after washing had changed was defined as the immobilized amount of trypsin (RU value).
The measurement chip was washed with a 10 mM phosphate buffer, and it was then equipped in the surface plasmon resonance device of the present example. Thereafter, leupeptin (0.01 mM; phosphate buffer pH 7.4), the following kinase inhibitor, and an amphipathic compound (0.01 mM; phosphate buffer pH 7.4) were added thereto, followed by leaving at rest for 3 minutes. The amount by which resonance signals (RU value) had changed was defined as the binding amount of the compound.

[2] = biological target: T1, trypsin; assay: Enzyme activity of immobilized trypsin, fluorescence of decomposed Bz-Arg-MCA substrate; type: biochemical; conditions: for Enzyme activity (fluorescence intensity): 0.1 mM Bz-Arg-MCA, 120 minutes
Protocol: Using the chip on which trypsin had been immobilized as described in (1) above, the enzyme activity of trypsin was measured. […] Specifically, a substrate specific to trypsin (benzoyl-L-arginine-4-methylcoumarin-7-amide (hereinafter referred to as Bz-Arg-MCA); Peptide Institute, Inc.) was allowed to react with trypsin, and fluorescence in the decomposed product was measured.
The 10 mM phosphate buffer contained in the measurement chip was removed, and 0.1 mM Bz-Arg-MCA was then added thereto. The reaction was then carried out for 120 minutes.
Fluorescence measurement was carried out regarding fluorescence for each of the aforementioned reaction times, using the BMGLabTechnologies FLUOstar measurement device (excitation: 380 nm; and emission: 460 nm).

CC(=O)N[C@@H](CC(C)C)C(=O)N[C@@H](CC(C)C)C(=O)N[C@H](C=O)CCCNC(=N)N [Leupeptin, leupeptin]
Compound binding amount (RU) ([1]; Experiment No. 1: trypsin immobilized in phosphate buffer (pH 7.4), 10 mg/ml, 1 hr, secondary washing phosphate buffer (pH 7.4)): 25 RU
Compound binding amount (RU) ([1]; Experiment No. 2: trypsin immobilized in phosphate buffer (pH 7.4), 2 mg/ml, 1 hr, secondary washing phosphate buffer (pH 7.4)): 19 RU
Compound binding amount (RU) ([1]; Experiment No. 3: trypsin immobilized in phosphate buffer (pH 7.4), 2 mg/ml, 1 hr, secondary washing 10 mM NaOH): 8 RU
Compound binding amount (RU) ([1]; Experiment No. 4: trypsin immobilized in acetate buffer (pH 5.0), 0.1 mg/ml, 0.2 hr, secondary washing phosphate buffer (pH 7.4)): 16 RU
Binding to the surface, in words ([1]; surface of experiment No. 2): binds to the surface

Trypsin
Activity value (enzyme activity/immobilized amount) ([2]; Experiment No. 1): 0.055
Enzyme activity (fluorescence intensity) ([2]; Experiment No. 1: phosphate buffer (pH 7.4), 10 mg/ml, 1 hr, washing phosphate buffer (pH 7.4)): 230
Activity value (enzyme activity/immobilized amount) ([2]; Experiment No. 2): 0.238
Enzyme activity (fluorescence intensity) ([2]; Experiment No. 2: phosphate buffer (pH 7.4), 2 mg/ml, 1 hr, washing phosphate buffer (pH 7.4)): 615
Activity value (enzyme activity/immobilized amount) ([2]; Experiment No. 3): 0.160
Enzyme activity (fluorescence intensity) ([2]; Experiment No. 3: phosphate buffer (pH 7.4), 2 mg/ml, 1 hr, washing 10 mM NaOH): 370
Activity value (enzyme activity/immobilized amount) ([2]; Experiment No. 4): 0.008
Enzyme activity (fluorescence intensity) ([2]; Experiment No. 4: acetate buffer (pH 5.0), 0.1 mg/ml, 0.2 hr, washing phosphate buffer (pH 7.4)): 40
